Stoichiometry N data for one substance are collected here from article doi:10.1101/2025.11.06.687086.

The target of this test is A/Solomon Islands/3/2006 (H1N1) HA (influenza A virus A/Solomon Islands/3/2006 (H1N1)). In words: cryo-EM structure.

The term stoichiometry N denotes the number of molecules, sites or subunits per partner or assembly.

In turn, “A/Solomon Islands/3/2006 (H1N1) HA (natural protein)” yielded a stoichiometry N of 3.
